# Data published in patent US20090092595A1, “Suppression of sPLA2-integrin binding for treating an inflammatory condition” (REGENTS OF THE UNIVERSITY OF CALIFORNIA, priority 2007, published 2009).
# B1: wt sPLA2-IIA (secretory phospholipase A2 group IIA) (enzyme)
# chain: NLVNFHRMIKLTTGKEAALSYGFYGCHCGVGGRGSPKDATDRCCVTHDCCYKRLEKRGCGTKFLSYKFSNSGSRITCAKQDSCRSQLCECDKAAATCFARNKTTYNKKYQYYSNKHCRGSTPRC
# modifications: FITC label in the flow cytometry assay only (sites not given) ; FITC label (sites not given) in the flow cytometry assay only; the other assays used unlabelled protein.
# notes: the form is read from the printed primers; also called FITC-sPLA2-IIA; FITC-labeled sPLA2-IIA; not shown: N-terminal vector-encoded residues with the His tag from the PET28a/amp vector (insert in the Bam HI site)
# B2: R74E: sPLA2-IIA mutant, Arg-74 mutated to Glu (protein)
# chain: NLVNFHRMIKLTTGKEAALSYGFYGCHCGVGGRGSPKDATDRCCVTHDCCYKRLEKRGCGTKFLSYKFSNSGSEITCAKQDSCRSQLCECDKAAATCFARNKTTYNKKYQYYSNKHCRGSTPRC
# modifications: left off: small tags and cut ends
# notes: sPLA2-IIA mutant, Arg-74 mutated to Glu
# B3: R74E/R100E: integrin-binding-defective combined mutant of sPLA2-IIA, Arg-74 and Arg-100 mutated to Glu (protein)
# chain: NLVNFHRMIKLTTGKEAALSYGFYGCHCGVGGRGSPKDATDRCCVTHDCCYKRLEKRGCGTKFLSYKFSNSGSEITCAKQDSCRSQLCECDKAAATCFAENKTTYNKKYQYYSNKHCRGSTPRC
# modifications: left off: small tags and cut ends
# B4: R42E: sPLA2-IIA mutant, Arg-42 mutated to Glu (protein)
# chain: NLVNFHRMIKLTTGKEAALSYGFYGCHCGVGGRGSPKDATDECCVTHDCCYKRLEKRGCGTKFLSYKFSNSGSRITCAKQDSCRSQLCECDKAAATCFARNKTTYNKKYQYYSNKHCRGSTPRC
# modifications: left off: small tags and cut ends
# notes: sPLA2-IIA mutant, Arg-42 mutated to Glu
# B5: R100E: sPLA2-IIA mutant, Arg-100 mutated to Glu (protein)
# chain: NLVNFHRMIKLTTGKEAALSYGFYGCHCGVGGRGSPKDATDRCCVTHDCCYKRLEKRGCGTKFLSYKFSNSGSRITCAKQDSCRSQLCECDKAAATCFAENKTTYNKKYQYYSNKHCRGSTPRC
# modifications: left off: small tags and cut ends
# notes: sPLA2-IIA mutant, Arg-100 mutated to Glu
# B6: H47Q: catalytically inactive mutant of sPLA2-IIA, His-47 mutated to Gln (protein)
# chain: NLVNFHRMIKLTTGKEAALSYGFYGCHCGVGGRGSPKDATDRCCVTQDCCYKRLEKRGCGTKFLSYKFSNSGSRITCAKQDSCRSQLCECDKAAATCFARNKTTYNKKYQYYSNKHCRGSTPRC
# modifications: left off: small tags and cut ends
# B7: R53E: sPLA2-IIA mutant, Arg-53 mutated to Glu (protein)
# chain: NLVNFHRMIKLTTGKEAALSYGFYGCHCGVGGRGSPKDATDRCCVTHDCCYKELEKRGCGTKFLSYKFSNSGSRITCAKQDSCRSQLCECDKAAATCFARNKTTYNKKYQYYSNKHCRGSTPRC
# modifications: left off: small tags and cut ends
# notes: sPLA2-IIA mutant, Arg-53 mutated to Glu
# B8: sPLA2-IIA H47Q mutant (catalytically inactive) (enzyme, human, UniProt P14555 21-144, looked up)
# chain: NLVNFHRMIKLTTGKEAALSYGFYGCHCGVGGRGSPKDATDRCCVTQDCCYKRLEKRGCGTKFLSYKFSNSGSRITCAKQDSCRSQLCECDKAAATCFARNKTTYNKKYQYYSNKHCRGSTPRC
# notes: mature; the printed positions appear to count on the mature protein, not on the precursor entry P14555; also called H47Q sPLA2-IIA; not shown: N-terminal vector-encoded residues with His tag from the PET28a/amp vector
# B9: sPLA2-IIA R74E/R100E mutant (integrin-binding-defective) (enzyme, human, UniProt P14555 21-144, looked up)
# chain: NLVNFHRMIKLTTGKEAALSYGFYGCHCGVGGRGSPKDATDRCCVTHDCCYKRLEKRGCGTKFLSYKFSNSGSEITCAKQDSCRSQLCECDKAAATCFAENKTTYNKKYQYYSNKHCRGSTPRC
# notes: mature; the printed positions appear to count on the mature protein; not shown: N-terminal vector-encoded residues with His tag from the PET28a/amp vector
# Legend:
# [1] = Bradley et al. 2005; cited from earlier work
# [2] = Bowton et al. 2005; cited from earlier work
# [3] = target: integrin αvβ3 on CHO cells expressing recombinant αvβ3 (β3-CHO) and on proteoglycan-deficient pgs745 cells (β3-745) (human) (UniProt P05106); test: cell adhesion to coated sPLA2-IIA, 7E3 at 10 µg/ml in the medium; about the background level
# integrin αvβ3 on CHO cells expressing recombinant αvβ3 (β3-CHO) and on proteoglycan-deficient pgs745 cells (β3-745) (human), sequence (P05106 27-788): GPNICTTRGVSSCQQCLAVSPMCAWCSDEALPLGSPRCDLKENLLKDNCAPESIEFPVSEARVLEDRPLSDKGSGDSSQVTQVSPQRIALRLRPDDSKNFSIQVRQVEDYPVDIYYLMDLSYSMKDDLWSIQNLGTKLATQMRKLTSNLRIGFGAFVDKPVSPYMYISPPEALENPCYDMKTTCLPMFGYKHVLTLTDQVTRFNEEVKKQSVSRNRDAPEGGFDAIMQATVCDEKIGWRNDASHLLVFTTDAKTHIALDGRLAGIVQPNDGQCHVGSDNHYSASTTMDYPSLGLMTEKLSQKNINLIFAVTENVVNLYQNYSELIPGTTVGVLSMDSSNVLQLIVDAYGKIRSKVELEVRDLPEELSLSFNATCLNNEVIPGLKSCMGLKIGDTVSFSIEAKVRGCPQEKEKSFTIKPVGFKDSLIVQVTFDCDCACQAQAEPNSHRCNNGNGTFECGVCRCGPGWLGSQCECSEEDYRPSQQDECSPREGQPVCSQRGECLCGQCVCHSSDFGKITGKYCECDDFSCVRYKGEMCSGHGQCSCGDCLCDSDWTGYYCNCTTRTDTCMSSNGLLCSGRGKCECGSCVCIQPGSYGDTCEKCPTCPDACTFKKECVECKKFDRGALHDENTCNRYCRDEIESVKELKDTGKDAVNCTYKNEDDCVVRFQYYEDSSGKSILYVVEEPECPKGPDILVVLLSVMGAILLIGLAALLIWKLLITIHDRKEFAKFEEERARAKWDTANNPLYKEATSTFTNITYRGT
# integrin α4β1 = target: T1, integrin α4β1 (Homo sapiens, UniProt P05556+P13612); test: Adhesion of α4-K562 cells (recombinant α4β1) to immobilized sPLA2-IIA; type: cell-based; settings: data not shown
# T1 construct: K562 cells have endogenous α5β1; expressed in transfected cells; host or cells: K562
# T1 sequence (P13612 34-1032): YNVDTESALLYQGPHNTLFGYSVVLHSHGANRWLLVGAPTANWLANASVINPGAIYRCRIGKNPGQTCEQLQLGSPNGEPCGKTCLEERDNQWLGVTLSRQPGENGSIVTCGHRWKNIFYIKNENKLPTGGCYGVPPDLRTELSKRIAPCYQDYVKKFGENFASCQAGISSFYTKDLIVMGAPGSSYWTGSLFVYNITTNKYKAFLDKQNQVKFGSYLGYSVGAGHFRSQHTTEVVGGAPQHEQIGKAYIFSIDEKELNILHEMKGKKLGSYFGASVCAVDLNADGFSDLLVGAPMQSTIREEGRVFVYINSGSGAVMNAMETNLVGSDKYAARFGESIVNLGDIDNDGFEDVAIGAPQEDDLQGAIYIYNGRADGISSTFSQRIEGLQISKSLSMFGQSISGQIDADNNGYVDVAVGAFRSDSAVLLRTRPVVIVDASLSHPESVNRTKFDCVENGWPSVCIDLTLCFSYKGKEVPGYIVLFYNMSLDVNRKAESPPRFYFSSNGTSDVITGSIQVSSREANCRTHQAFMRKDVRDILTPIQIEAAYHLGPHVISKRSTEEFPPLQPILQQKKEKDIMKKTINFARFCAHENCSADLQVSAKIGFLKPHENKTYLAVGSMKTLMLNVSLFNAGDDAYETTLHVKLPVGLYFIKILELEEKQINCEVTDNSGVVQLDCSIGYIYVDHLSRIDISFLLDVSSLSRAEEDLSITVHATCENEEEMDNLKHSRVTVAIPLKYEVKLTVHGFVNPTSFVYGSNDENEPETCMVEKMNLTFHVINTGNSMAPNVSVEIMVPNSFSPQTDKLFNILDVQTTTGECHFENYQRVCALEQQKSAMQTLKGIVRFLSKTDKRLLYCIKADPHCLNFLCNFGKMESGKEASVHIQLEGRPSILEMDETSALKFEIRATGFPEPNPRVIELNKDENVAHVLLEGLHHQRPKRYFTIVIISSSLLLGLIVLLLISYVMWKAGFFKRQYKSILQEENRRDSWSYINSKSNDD
# T1 sequence (P05556 21-798): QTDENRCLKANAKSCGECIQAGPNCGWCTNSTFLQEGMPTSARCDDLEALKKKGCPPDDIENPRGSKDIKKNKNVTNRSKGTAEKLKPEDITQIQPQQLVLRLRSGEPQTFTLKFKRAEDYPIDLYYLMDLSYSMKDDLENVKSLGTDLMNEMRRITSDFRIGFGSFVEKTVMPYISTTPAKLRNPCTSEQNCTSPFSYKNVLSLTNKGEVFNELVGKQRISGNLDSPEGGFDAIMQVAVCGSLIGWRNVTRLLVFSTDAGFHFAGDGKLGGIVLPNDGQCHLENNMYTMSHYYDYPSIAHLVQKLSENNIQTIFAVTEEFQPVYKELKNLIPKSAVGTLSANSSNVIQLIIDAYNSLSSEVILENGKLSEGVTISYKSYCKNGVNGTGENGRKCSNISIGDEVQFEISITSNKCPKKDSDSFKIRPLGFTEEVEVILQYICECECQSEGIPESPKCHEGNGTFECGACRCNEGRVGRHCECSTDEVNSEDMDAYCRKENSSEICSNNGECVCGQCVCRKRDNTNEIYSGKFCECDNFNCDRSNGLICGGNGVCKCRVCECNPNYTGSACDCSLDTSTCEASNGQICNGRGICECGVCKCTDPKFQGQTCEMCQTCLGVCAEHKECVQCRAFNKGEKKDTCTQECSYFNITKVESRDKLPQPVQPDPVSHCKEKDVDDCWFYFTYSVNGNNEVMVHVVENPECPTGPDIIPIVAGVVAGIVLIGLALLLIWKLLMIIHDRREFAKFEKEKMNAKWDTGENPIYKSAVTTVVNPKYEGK
# Description: FIG. 5. sPLA2-IIA binding to integrin α4β1. a) Cells expressing recombinant α4β1 adhered to wt sPLA2-IIA better than cells expressing other recombinant integrins. We used transfected K562 cells clonally express different human integrins for adhesion assays. Low background adhesion to BSA was subtracted. […] Wells of 96-well microtiter plate were coated with VCAM-1 and FN-GST, and incubated with U937 cells (1×10^4 cells/plate) in the presence of the increasing concentrations of sPLA2-IIA for 1 h at 37° C. Adherent cells were quantified using endogenous phosphatase after gently rinsing the well to remove unbound cells. Data is shown as means+/−SEM of triplicate experiments. *P=0.0101 and **P<0.0001 by t-test. c) Amino acid sequence in the α4 subunit that is critical for VCAM-1 and CS-1 binding is also critical for sPLA2-IIA binding. CHO cells that clonally express wt or mutant α4 (Irie, A. et al., Embo J, 14(22): 5550-5556 (1995)) were used for adhesion assays. Data is shown as means+/−SEM of triplicate experiments. Similar results were obtained using K562 cells expressing α4 mutants (not shown).
# Other methods We performed docking simulation of interaction between sPLA2-IIA and integrin αvβ3 using the AutoDock3 as previously described (Mori, S. et al., J Biol Chem, in press (2008)). […]
# soluble integrin αvβ3 = target: T2, soluble integrin αvβ3 (Homo sapiens, UniProt P05106+P06756); test: Binding of soluble αvβ3 to immobilized sPLA2-IIA (ELISA-type assay); settings: immobilized protein, 20 μg/ml coating
# T2 construct: Recombinant soluble αvβ3 was synthesized as previously described; made in house
# T2 sequence (P06756 31-992 limits assumed): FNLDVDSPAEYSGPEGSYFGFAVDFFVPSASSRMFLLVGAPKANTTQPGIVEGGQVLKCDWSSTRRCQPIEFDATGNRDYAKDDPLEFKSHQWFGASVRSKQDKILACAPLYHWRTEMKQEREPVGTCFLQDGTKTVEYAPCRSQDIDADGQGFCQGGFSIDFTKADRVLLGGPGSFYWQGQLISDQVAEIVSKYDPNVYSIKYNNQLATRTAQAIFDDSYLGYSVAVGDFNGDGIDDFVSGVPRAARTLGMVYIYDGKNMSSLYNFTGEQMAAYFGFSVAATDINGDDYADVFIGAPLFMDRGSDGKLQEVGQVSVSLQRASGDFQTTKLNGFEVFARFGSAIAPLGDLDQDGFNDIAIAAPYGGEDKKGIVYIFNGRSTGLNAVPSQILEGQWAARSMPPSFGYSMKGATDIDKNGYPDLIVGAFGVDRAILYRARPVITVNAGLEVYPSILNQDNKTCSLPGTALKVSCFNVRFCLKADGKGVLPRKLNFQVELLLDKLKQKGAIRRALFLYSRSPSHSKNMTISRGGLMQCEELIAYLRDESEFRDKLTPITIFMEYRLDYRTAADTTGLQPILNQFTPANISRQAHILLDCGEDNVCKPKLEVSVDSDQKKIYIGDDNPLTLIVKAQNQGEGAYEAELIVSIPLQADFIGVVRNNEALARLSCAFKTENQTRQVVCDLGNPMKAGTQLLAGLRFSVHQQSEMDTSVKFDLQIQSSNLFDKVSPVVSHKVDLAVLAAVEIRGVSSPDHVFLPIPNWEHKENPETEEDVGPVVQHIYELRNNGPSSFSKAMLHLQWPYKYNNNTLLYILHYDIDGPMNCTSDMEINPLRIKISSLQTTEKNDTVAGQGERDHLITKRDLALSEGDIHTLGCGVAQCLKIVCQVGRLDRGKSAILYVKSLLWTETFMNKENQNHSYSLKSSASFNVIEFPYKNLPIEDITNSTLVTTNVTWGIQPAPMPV
# T2 sequence (P05106 27-718 limits assumed): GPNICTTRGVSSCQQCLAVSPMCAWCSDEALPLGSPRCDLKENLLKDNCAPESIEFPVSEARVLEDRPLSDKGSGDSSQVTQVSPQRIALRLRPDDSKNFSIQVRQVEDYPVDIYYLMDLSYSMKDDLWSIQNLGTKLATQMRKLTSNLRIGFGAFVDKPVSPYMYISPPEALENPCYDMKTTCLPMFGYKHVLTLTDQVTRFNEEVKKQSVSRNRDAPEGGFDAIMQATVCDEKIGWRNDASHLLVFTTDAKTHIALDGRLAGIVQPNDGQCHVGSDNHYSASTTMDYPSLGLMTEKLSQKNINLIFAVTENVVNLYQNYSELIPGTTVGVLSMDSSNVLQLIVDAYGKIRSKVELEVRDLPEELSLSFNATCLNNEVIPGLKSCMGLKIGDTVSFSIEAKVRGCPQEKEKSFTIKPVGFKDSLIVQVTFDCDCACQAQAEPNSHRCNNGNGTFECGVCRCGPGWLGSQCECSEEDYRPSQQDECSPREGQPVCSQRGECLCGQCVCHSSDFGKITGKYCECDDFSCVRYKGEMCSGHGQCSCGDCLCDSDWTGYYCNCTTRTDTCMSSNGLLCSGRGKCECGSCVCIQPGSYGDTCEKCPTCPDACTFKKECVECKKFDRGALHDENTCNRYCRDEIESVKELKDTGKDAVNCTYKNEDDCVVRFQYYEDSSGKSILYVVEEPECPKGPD
# Description: Binding of soluble αvβ3 to immobilized sPLA2-IIA sPLA2-IIA was immobilized to wells of 96 well microtiter plates and the remaining protein-binding sites were blocked by BSA as described (Mori, S. et al., J Biol Chem, 283:18066-18075 (2008)). Soluble recombinant αvβ3 at 5 μg/ml in Hepes-Tyrodes buffer supplemented with 1 mM MnCl2 was added to the well and incubated for 2 h. Bound αvβ3 was measured using anti-integrin β3 (mAb AV-10) followed by HRP-conjugated goat anti-mouse IgG and peroxidase substrates.
# [4] = target: T3, recombinant soluble integrin αvβ3 (UniProt P06756 31-992; P05106 27-718); test: SPR (Biacore), soluble αvβ3 amine-coupled to CM5 chip, sPLA2-IIA injected, 1 mM Mn2+, 1:1 binding with drifting baseline model
# T3 construct: Soluble heterodimer; whole entries named only; also called soluble αvβ3; soluble recombinant αvβ3
# T3 sequence (P06756 31-992, chain 1 of 2): as the sequence (P06756 31-992 limits assumed) above
# T3 sequence (P05106 27-718, chain 2 of 2): as the sequence (P05106 27-718 limits assumed) above
# Description: (§4) The mutant proteins were tested for binding to soluble integrin αvβ3.
# (§5) Surface plasmon resonance study Recombinant soluble integrin αvβ3 was immobilized to Biacore Sensor chip CM5 (Biacore, Piscataway, N.J.) by the standard amine coupling method. […] Then the sensor chip was washed with the running buffer alone at the same flow rate for another 5 min (the dissociation phase). Two consecutive one-minute injections of 0.5 M, pH 8 EDTA solution at the same flow rate were used to regenerate the chip for another cycle of injection. The resonance unit elicited from the reference flow cell was subtracted from the resonance unit elicited from the integrin flow cell to eliminate the non-specific protein-flow cell interaction and the bulk refractive index effect. The recorded binding curves were fitted with the “1:1 binding with drifting baseline model” by using the Biaevaluation Version 4.1.
# [5] = target: T4, integrin α4β1 on K562 cells expressing recombinant α4β1 (α4-K562) and on U937 human monocytic lymphoma cells (human, UniProt P13612 34-1032; P05556 21-798); test: cell adhesion of α4-K562 cells to coated sPLA2-IIA
# T4 construct: whole, on cells; Recombinant α4 in K562 cells; endogenous α4β1 in U937 cells; Treated as one molecule (human α4β1 on cells); also called α4-K562 cells; U937 cells (α4β1+)
# T4 sequence (P13612 34-1032, chain 1 of 2): as the sequence (P13612 34-1032) above
# T4 sequence (P05556 21-798, chain 2 of 2): as the sequence (P05556 21-798) above
# [6] = PLA2 activity by arachidonoyl-Thio-PC hydrolysis; type: biochemical; settings: effect of mutation on catalytic activity
# Description: Other methods We performed docking simulation of interaction between sPLA2-IIA and integrin αvβ3 using the AutoDock3 as previously described (Mori, S. et al., J Biol Chem, in press (2008)). Adhesion assays were performed as described previously (Eto, K. et al., J. Biol. Chem., 277:17804-17810 (2002)). mAb 7E3 was used at 10 μg/ml. We assayed PLA2 activity by arachidonoyl-Thio-PC hydrolysis (Cayman Chemicals, Ann Arbor, Mich.) as described (Reynolds, L. J. et al., Anal. Biochem., 217:25-32 (1994)).
# ERK1/2 = test: MAP kinase (ERK1/2) activation in U937 cells, western blotting; type: cell-based, human; settings: 0.5 μg/ml, 10 min, 37° C.
# Description: (§1) U937 cells (αvβ3+, α4β1+) were plated in wells of 96-well plates (10,000 cells/well), and serum-starved for 48 h. After treatment with wt or mutant sPLA2-IIA for 48 h, we measured cell proliferation by MTS assays. […] U937 cells were serum-starved for 24 h, and stimulated with wt and mutant sPLA2-IIA (0.5 μg/ml) for 10 min at 37° C. Cell lysates were analyzed by western blotting with anti-phospho ERK1/2 or anti-ERK1/2 antibodies. The blot is representative of three independent experiments.
# (§2) Cell proliferation and MAP kinase activation K562 cells and human monocytic lymphoma U937 cells were maintained in RPM11640 medium supplemented with 10% FCS. Cells were plated in 96-well plates (1×10^4 cells/well), and serum-starved for 48 h at 37° C. in 5% CO2 atmosphere. Cells were then treated with or without sPLA2-IIA in medium without serum for 48 h. Cell proliferation was determined by MTS assays using the Aqueous Cell Proliferation Assay Kit (Promega). For MAP kinase activation assays, cells were serum starved in RPMI1640 medium supplemented with 0.4% FCS for 24 h, and stimulated with Wt and mutant sPLA2-IIA (0.5 μg/ml) for 10 min at 37° C. ERK1/2 activation was measured as described (Mori, S. et al., J Biol Chem, in press (2008)).
# αvβ3-K562 cells = test: Proliferation of αvβ3-K562 cells (MTS assay); type: cell-based, human; settings: serum-starved 48 h, stimulated 48 h
# Description: (§3) Cells were serum-starved for 48 h and stimulated with sPLA2-IIA for 48 h. Cell proliferation was determined by MTS assays. Data is shown as means+/−SEM of triplicate experiments. α4- and αvβ3-K562 cells proliferated faster than mock-K562 cells. […] Serum-starved cells were stimulated with wt or mutant sPLA2-IIA (0.5 μg/ml) for 48 h. Data is shown as means+/−SEM of triplicate experiments. α4-K562 and αvβ3-K562 cells grew faster than mock K562 cells with wt and H47Q sPLA2-IIA (*P<0.05 by t-test).
# as §2
# α4-K562 cells = test: Proliferation of α4-K562 cells (MTS assay); type: cell-based, human; settings: serum-starved 48 h, stimulated 48 h
# Description: as §3, §2
# [7] = test system: U937 human monocytic lymphoma cells; test: Proliferation of U937 cells (MTS assay); type: cell-based; settings: serum-starved 48 h, treated 48 h
# Description: as §1, §2
# [8] = target: T3, recombinant soluble integrin αvβ3; test: SPR (Biacore), soluble αvβ3 amine-coupled to CM5 chip, mutant injected, 1 mM Mn2+, 1:1 binding with drifting baseline model
# Description: as §4, §5
molecule,measurement,setting,value
CCc1c(C(=O)C(N)=O)c2c(OCC(=O)OC)cccc2n1Cc1ccccc1 [S-3013/LY333013],therapeutic effect in rheumatoid arthritis,[1],failed to demonstrate a significant therapeutic effect
same,therapeutic effect in asthma,[2],failed to demonstrate a significant therapeutic effect
"mAb 7E3 (specific to human β3 subunit, function blocking) (antibody)",adhesion of β3-CHO cells to immobilized sPLA2-IIA in the presence of the antibody (%),[3],30%
"Cc1ccccc1NC(=O)Nc1ccc(CC(=O)N[C@@H](CCCCNC(=O)/C=C/c2cccnc2)C(=O)N[C@@H](CCCC(=O)O)C(=O)NC2(C(N)=O)CCCCC2)cc1 [LLP2A, reference compound]",blocking of α4β1 binding to sPLA2-IIA in transfected K562 cells,integrin α4β1,did not block
CCc1c(C(=O)C(N)=O)c2c(OCC(=O)[O-])cccc2n1Cc1ccccc1.[Na+] [S-5920/LY315920Na],therapeutic effect in rheumatoid arthritis,[1],failed to demonstrate a significant therapeutic effect
same,therapeutic effect in asthma,[2],failed to demonstrate a significant therapeutic effect
"disintegrin domain of ADAM15: a known αvβ3 ligand, positive control [reference compound]",binding to soluble αvβ3,soluble integrin αvβ3,bound
B1,Kd,[4],211 nM
same,binding result,[5],binds
B2,binding to soluble αvβ3,soluble integrin αvβ3,reduced the binding
B3,PLA2 activity,[6],did not affect PLA2 activity
same,ERK1/2 activation in U937 cells,ERK1/2,did not induce
same,binding to soluble αvβ3,soluble integrin αvβ3,effectively reduced the binding
same,proliferation of αvβ3-K562 cells,αvβ3-K562 cells,did not induce proliferation
same,proliferation of α4-K562 cells,α4-K562 cells,did not induce proliferation
same,proliferation of monocytic U937 cells,[7],did not
B4,binding to soluble αvβ3,soluble integrin αvβ3,little or no effect
B5,binding to soluble αvβ3,soluble integrin αvβ3,reduced the binding
B6,PLA2 activity,[6],reduced PLA2 activity
same,ERK1/2 activation in U937 cells,ERK1/2,induced
same,binding to soluble αvβ3,soluble integrin αvβ3,did not affect the binding
same,proliferation of αvβ3-K562 cells,αvβ3-K562 cells,induced proliferation
same,proliferation of α4-K562 cells,α4-K562 cells,induced proliferation
same,proliferation of monocytic U937 cells,[7],induced robust proliferation
B7,binding to soluble αvβ3,soluble integrin αvβ3,little or no effect
B8,Kd,[8],44.7 nM
B9,Kd,[8],1080 nM
